Source: article PMC8298264, “Function of cofactor Akirin2 in the regulation of gene expression in model human neutrophil-like HL60 cells” (Bioscience Reports, 2021)

B1: sp¦Q99986¦VRK1_HUMAN (protein, UniProt Q99986 1-396, looked up)
Serine/threonine-protein …: MPRVKAAQAGRQSSAKRHLAEQFAVGEIITDMAKKEWKVGLPIGQGGFGCIYLADMNSSESVGSDAPCVVKVEPSDNGPLFTELKFYQRAAKPEQIQKWIRTRKLKYLGVPKYWGSGLHDKNGKSYRFMIMDRFGSDLQKIYEANAKRFSRKTVLQLSLRILDILEYIHEHEYVHGDIKASNLLLNYKNPDQVYLVDYGLAYRYCPEGVHKEYKEDPKRCHDGTIEFTSIDAHNGVAPSRRGDLEILGYCMIQWLTGHLPWEDNLKDPKYVRDSKIRYRENIASLMDKCFPEKNKPGEIAKYMETVKLLDYTEKPLYENLRDILLQGLKAIGSKDDGKLDLSVVENGGLKAKTITKKRKKEIEESKEPGVEDTEWSNTQTEEAIQTRSRTRKRVQK
B2: sp¦O43390¦HNRPR_HUMAN (protein, UniProt O43390 2-633, looked up)
Heterogeneous nuclear …: ANQVNGNAVQLKEEEEPMDTSSVTHTEHYKTLIEAGLPQKVAERLDEIFQTGLVAYVDLDERAIDALREFNEEGALSVLQQFKESDLSHVQNKSAFLCGVMKTYRQREKQGSKVQESTKGPDEAKIKALLERTGYTLDVTTGQRKYGGPPPDSVYSGVQPGIGTEVFVGKIPRDLYEDELVPLFEKAGPIWDLRLMMDPLSGQNRGYAFITFCGKEAAQEAVKLCDSYEIRPGKHLGVCISVANNRLFVGSIPKNKTKENILEEFSKVTEGLVDVILYHQPDDKKKNRGFCFLEYEDHKSAAQARRRLMSGKVKVWGNVVTVEWADPVEEPDPEVMAKVKVLFVRNLATTVTEEILEKSFSEFGKLERVKKLKDYAFVHFEDRGAAVKAMDEMNGKEIEGEEIEIVLAKPPDKKRKERQAARQASRSTAYEDYYYHPPPRMPPPIRGRGRGGGRGGYGYPPDYYGYEDYYDDYYGYDYHDYRGGYEDPYYGYDDGYAVRGRGGGRGGRGAPPPPRGRGAPPPRGRAGYSQRGAPLGPPRGSRGGRGGPAQQQRGRGSRGSRGNRGGNVGGKRKADGYNQPDSKRRQTNNQQNWGSQPIAQQPLQQGGDYSGNYGYNNDNQEFYQDTYGQQWK
B3: sp¦P24752¦THIL_HUMAN (protein, UniProt P24752 34-427, looked up)
Acetyl-CoA acetyltransferase, …: VSKPTLKEVVIVSATRTPIGSFLGSLSLLPATKLGSIAIQGAIEKAGIPKEEVKEAYMGNVLQGGEGQAPTRQAVLGAGLPISTPCTTINKVCASGMKAIMMASQSLMCGHQDVMVAGGMESMSNVPYVMNRGSTPYGGVKLEDLIVKDGLTDVYNKIHMGSCAENTAKKLNIARNEQDAYAINSYTRSKAAWEAGKFGNEVIPVTVTVKGQPDVVVKEDEEYKRVDFSKVPKLKTVFQKENGTVTAANASTLNDGAAALVLMTADAAKRLNVTPLARIVAFADAAVEPIDFPIAPVYAASMVLKDVGLKKEDIAMWEVNEAFSLVVLANIKMLEIDPQKVNINGGAVSLGHPIGMSGARIVGHLTHALKQGEYGLASICNGGGGASAMLIQKL
B4: sp¦P36957¦ODO2_HUMAN (protein, UniProt P36957 68-453, looked up)
Dihydrolipoyllysine-residue …: DDLVTVKTPAFAESVTEGDVRWEKAVGDTVAEDEVVCEIETDKTSVQVPSPANGVIEALLVPDGGKVEGGTPLFTLRKTGAAPAKAKPAEAPAAAAPKAEPTAAAVPPPAAPIPTQMPPVPSPSQPPSGKPVSAVKPTVAPPLAEPGAGKGLRSEHREKMNRMRQRIAQRLKEAQNTCAMLTTFNEIDMSNIQEMRARHKEAFLKKHNLKLGFMSAFVKASAFALQEQPVVNAVIDDTTKEVVYRDYIDISVAVATPRGLVVPVIRNVEAMNFADIERTITELGEKARKNELAIEDMDGGTFTISNGGVFGSLFGTPIINPPQSAILGMHGIFDRPVAIGGKVEVRPMMYVALTYDHRLIDGREAVTFLRKIKAAVEDPRVLLLDL
B5: sp¦P07954¦FUMH_HUMAN (protein, UniProt P07954 45-510, looked up)
Fumarate hydratase, …: ASQNSFRIEYDTFGELKVPNDKYYGAQTVRSTMNFKIGGVTERMPTPVIKAFGILKRAAAEVNQDYGLDPKIANAIMKAADEVAEGKLNDHFPLVVWQTGSGTQTNMNVNEVISNRAIEMLGGELGSKIPVHPNDHVNKSQSSNDTFPTAMHIAAAIEVHEVLLPGLQKLHDALDAKSKEFAQIIKIGRTHTQDAVPLTLGQEFSGYVQQVKYAMTRIKAAMPRIYELAAGGTAVGTGLNTRIGFAEKVAAKVAALTGLPFVTAPNKFEALAAHDALVELSGAMNTTACSLMKIANDIRFLGSGPRSGLGELILPENEPGSSIMPGKVNPTQCEAMTMVAAQVMGNHVAVTVGGSNGHFELNVFKPMMIKNVLHSARLLGDASVSFTENCVVGIQANTERINKLMNESLMLVTALNPHIGYDKAAKIAKTAHKNGSTLKETAIELGYLTAEQFDEWVKPKDMLGPK
B6: sp¦P22102¦PUR2_HUMAN (protein, UniProt P22102 2-1010, looked up)
Trifunctional purine …: AARVLIIGSGGREHTLAWKLAQSHHVKQVLVAPGNAGTACSEKISNTAISISDHTALAQFCKEKKIEFVVVGPEAPLAAGIVGNLRSAGVQCFGPTAEAAQLESSKRFAKEFMDRHGIPTAQWKAFTKPEEACSFILSADFPALVVKASGLAAGKGVIVAKSKEEACKAVQEIMQEKAFGAAGETIVIEELLDGEEVSCLCFTDGKTVAPMPPAQDHKRLLEGDGGPNTGGMGAYCPAPQVSNDLLLKIKDTVLQRTVDGMQQEGTPYTGILYAGIMLTKNGPKVLEFNCRFGDPECQVILPLLKSDLYEVIQSTLDGLLCTSLPVWLENHTALTVVMASKGYPGDYTKGVEITGFPEAQALGLEVFHAGTALKNGKVVTHGGRVLAVTAIRENLISALEEAKKGLAAIKFEGAIYRKDVGFRAIAFLQQPRSLTYKESGVDIAAGNMLVKKIQPLAKATSRSGCKVDLGGFAGLFDLKAAGFKDPLLASGTDGVGTKLKIAQLCNKHDTIGQDLVAMCVNDILAQGAEPLFFLDYFSCGKLDLSVTEAVVAGIAKACGKAGCALLGGETAEMPDMYPPGEYDLAGFAVGAMERDQKLPHLERITEGDVVVGIASSGLHSNGFSLVRKIVAKSSLQYSSPAPDGCGDQTLGDLLLTPTRIYSHSLLPVLRSGHVKAFAHITGGGLLENIPRVLPEKLGVDLDAQTWRIPRVFSWLQQEGHLSEEEMARTFNCGVGAVLVVSKEQTEQILRDIQQHKEEAWVIGSVVARAEGSPRVKVKNLIESMQINGSVLKNGSLTNHFSFEKKKARVAVLISGTGSNLQALIDSTREPNSSAQIDIVISNKAAVAGLDKAERAGIPTRVINHKLYKNRVEFDSAIDLVLEEFSIDIVCLAGFMRILSGPFVQKWNGKMLNIHPSLLPSFKGSNAHEQALETGVTVTGCTVHFVAEDVDAGQIILQEAVPVKRGDTVATLSERVKLAEHKIFPAALQLVASGTVQLGENGKICWVKEE
B7: sp¦P18859¦ATP5J_HUMAN (protein, UniProt P18859 33-108, looked up)
ATP synthase peripheral stalk …: NKELDPIQKLFVDKIREYKSKRQTSGGPVDASSEYQQELERELFKLKQMFGNADMNTFPTFKFEDPKFEVIEKPQA
B8: sp¦Q6RFH5¦WDR74_HUMAN (protein, UniProt Q6RFH5 1-385, looked up)
WD repeat-containing protein …: MAAAAARWNHVWVGTETGILKGVNLQRKQAANFTAGGQPRREEAVSALCWGTGGETQMLVGCADRTVKHFSTEDGIFQGQRHCPGGEGMFRGLAQADGTLITCVDSGILRVWHDKDKDTSSDPLLELRVGPGVCRMRQDPAHPHVVATGGKENALKIWDLQGSEEPVFRAKNVRNDWLDLRVPIWDQDIQFLPGSQKLVTCTGYHQVRVYDPASPQRRPVLETTYGEYPLTAMTLTPGGNSVIVGNTHGQLAEIDLRQGRLLGCLKGLAGSVRGLQCHPSKPLLASCGLDRVLRIHRIQNPRGLEHKVYLKSQLNCLLLSGRDNWEDEPQEPQEPNKVPLEDTETDELWASLEAAAKRKLSGLEQPQGALQTRRRKKKRPGSTSP
B9: sp¦Q9NVI7¦ATD3A_HUMAN (protein, UniProt Q9NVI7 2-586, looked up)
ATPase family AAA …: SWLFGINKGPKGEGAGPPPPLPPAQPGAEGGGDRGLGDRPAPKDKWSNFDPTGLERAAKAARELEHSRYAKDALNLAQMQEQTLQLEQQSKLKEYEAAVEQLKSEQIRAQAEERRKTLSEETRQHQARAQYQDKLARQRYEDQLKQQQLLNEENLRKQEESVQKQEAMRRATVEREMELRHKNEMLRVEAEARARAKAERENADIIREQIRLKAAEHRQTVLESIRTAGTLFGEGFRAFVTDWDKVTATVAGLTLLAVGVYSAKNATLVAGRFIEARLGKPSLVRETSRITVLEALRHPIQVSRRLLSRPQDALEGVVLSPSLEARVRDIAIATRNTKKNRSLYRNILMYGPPGTGKTLFAKKLALHSGMDYAIMTGGDVAPMGREGVTAMHKLFDWANTSRRGLLLFVDEADAFLRKRATEKISEDLRATLNAFLYRTGQHSNKFMLVLASNQPEQFDWAINDRINEMVHFDLPGQEERERLVRMYFDKYVLKPATEGKQRLKLAQFDYGRKCSEVARLTEGMSGREIAQLAVSWQATAYASEDGVLTEAMMDTRVQDAVQQHQQKMCWLKAEGPGRGDEPSPS
B10: sp¦P00966¦ASSY_HUMAN (protein, UniProt P00966 1-412, looked up)
Argininosuccinate synthase: MSSKGSVVLAYSGGLDTSCILVWLKEQGYDVIAYLANIGQKEDFEEARKKALKLGAKKVFIEDVSREFVEEFIWPAIQSSALYEDRYLLGTSLARPCIARKQVEIAQREGAKYVSHGATGKGNDQVRFELSCYSLAPQIKVIAPWRMPEFYNRFKGRNDLMEYAKQHGIPIPVTPKNPWSMDENLMHISYEAGILENPKNQAPPGLYTKTQDPAKAPNTPDILEIEFKKGVPVKVTNVKDGTTHQTSLELFMYLNEVAGKHGVGRIDIVENRFIGMKSRGIYETPAGTILYHAHLDIEAFTMDREVRKIKQGLGLKFAELVYTGFWHSPECEFVRHCIAKSQERVEGKVQVSVLKGQVYILGRESPLSLYNEELVSMNVQGDYEPTDATGFININSLRLKEYHRLQSKVTAK

System: human HL60 cells
Test: SWATH-MS proteomics, differential protein representation, akirin2 KO vs WT HL60 cells
Format: cell-based
Details: SWATH-MS, akirin2 KO vs WT HL60 cells, under-represented in KO
Method in brief: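 Three biological replicates per genotype; 150 µg protein FASP/trypsin digested; IDA library (3 µg digest); SWATH variable windows, 5 µg/sample, 3.6 s cycle; gradient 5–30% B 120 min then 30–60% B 15 min; 1% global FDR; TAS normalization.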

Row | Molecule | Fold Change | Log (Fold Change)
1 | B1 | 0.7448 | -0.128

Same assay, conditions: SWATH-MS, akirin2 KO vs WT HL60 cells; sheet "Under-represented in KO"

Row | Molecule | Fold Change | Log (Fold Change)
2 | B2 | 0.7565 | -0.1212
3 | B3 | 0.7481 | -0.126
4 | B4 | 0.7478 | -0.1262
5 | B5 | 0.754 | -0.1226
6 | B6 | 0.7577 | -0.1205
7 | B7 | 0.7532 | -0.1231
8 | B8 | 0.7453 | -0.1277
9 | B9 | 0.7506 | -0.1246

Same assay, conditions: akirin2 KO vs WT HL60 cells; sheet "Under-represented in KO"

Row | Molecule | Fold Change | Log (Fold Change)
10 | B10 | 0.3334 | -0.477
